US20210246218A1 (LYVGEN BIOPHARMA SUZHOU, published 2021)

How the values were obtained:
Experiment in all cases: ELISA, protein coated at 1 µg/mL
[1] = biological target: T1, human B7-H3 protein (human, UniProt Q5ZPR3 29-461, limits assumed)
T1 sequence (looked up): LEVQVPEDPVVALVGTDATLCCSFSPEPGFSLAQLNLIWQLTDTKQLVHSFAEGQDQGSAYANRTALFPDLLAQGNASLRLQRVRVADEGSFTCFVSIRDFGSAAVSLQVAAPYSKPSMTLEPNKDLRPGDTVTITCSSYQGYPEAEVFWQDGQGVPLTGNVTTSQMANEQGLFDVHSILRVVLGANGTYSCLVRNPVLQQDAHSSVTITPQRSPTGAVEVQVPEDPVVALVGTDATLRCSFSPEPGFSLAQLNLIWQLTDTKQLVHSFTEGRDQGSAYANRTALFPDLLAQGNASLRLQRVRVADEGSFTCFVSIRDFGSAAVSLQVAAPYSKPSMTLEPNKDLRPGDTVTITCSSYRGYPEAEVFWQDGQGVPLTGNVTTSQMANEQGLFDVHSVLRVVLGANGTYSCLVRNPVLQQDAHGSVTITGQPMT
Procedure: (§1) The plate was decanted and washed once; assay diluent was added at 200 μL/well. After a 1-hour incubation at room temperature, the plate was washed with PBST one time. […] These samples were added into the plate 50 μL/well. The plate was incubated 1 hour at room temperature and then washed three times with PBST. Goat anti-human IgG-H+L HRP-conjugated at 1:100,000 dilution or goat anti-mouse IgG (H+L) secondary antibody, HRP, at 1:50,000 dilution was added to the plate at 100 μL/well. The plate was incubated 1 hour at room temperature followed by washing with PBST four times. The TMB substrate solution was added 100 μL/well. The color was permitted to develop for 15 minutes and then 100 μL/well 2N H₂SO₄ was added to terminate the reaction. Absorbance at 450 nm and 620 nm was determined by a Tecan F200 Pro reader.

[2] = biological target: human PD-L1 protein (human, UniProt Q9NZQ7 19-238)
Chain of human PD-L1 protein (Q9NZQ7 19-238 limits assumed): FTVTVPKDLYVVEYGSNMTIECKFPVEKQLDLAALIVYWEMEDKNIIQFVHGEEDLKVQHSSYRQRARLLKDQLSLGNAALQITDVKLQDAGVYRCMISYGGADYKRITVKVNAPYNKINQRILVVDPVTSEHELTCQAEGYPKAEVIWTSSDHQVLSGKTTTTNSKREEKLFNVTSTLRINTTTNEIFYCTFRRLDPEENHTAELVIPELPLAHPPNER
Procedure: as §1

[3] = biological target: T2, mouse CD137 protein (mouse, UniProt P20334 24-187)
T2 construct: Coated on ELISA plates; also called Rodent CD137; murine CD137
T2 sequence (looked up): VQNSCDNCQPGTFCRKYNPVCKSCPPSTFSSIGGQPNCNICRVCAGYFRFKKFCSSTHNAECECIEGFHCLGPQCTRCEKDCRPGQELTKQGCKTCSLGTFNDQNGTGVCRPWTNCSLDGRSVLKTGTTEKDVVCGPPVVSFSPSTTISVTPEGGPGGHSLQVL
Procedure: as §1

[4] = biological target: T3, human CD20 protein (human, UniProt P11836 1-297, limits assumed)
T3 sequence (looked up): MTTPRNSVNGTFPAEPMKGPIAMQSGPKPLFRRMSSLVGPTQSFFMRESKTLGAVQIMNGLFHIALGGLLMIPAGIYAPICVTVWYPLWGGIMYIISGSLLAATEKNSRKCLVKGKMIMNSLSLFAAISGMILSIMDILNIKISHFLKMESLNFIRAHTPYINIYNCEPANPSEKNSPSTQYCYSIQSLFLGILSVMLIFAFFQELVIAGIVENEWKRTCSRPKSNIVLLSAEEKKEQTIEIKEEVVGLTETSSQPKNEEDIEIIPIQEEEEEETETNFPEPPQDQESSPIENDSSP
Procedure: as §1

[5] = biological target: T4, human LAG-3 protein (human, UniProt P18627 23-450)
T4 sequence (looked up): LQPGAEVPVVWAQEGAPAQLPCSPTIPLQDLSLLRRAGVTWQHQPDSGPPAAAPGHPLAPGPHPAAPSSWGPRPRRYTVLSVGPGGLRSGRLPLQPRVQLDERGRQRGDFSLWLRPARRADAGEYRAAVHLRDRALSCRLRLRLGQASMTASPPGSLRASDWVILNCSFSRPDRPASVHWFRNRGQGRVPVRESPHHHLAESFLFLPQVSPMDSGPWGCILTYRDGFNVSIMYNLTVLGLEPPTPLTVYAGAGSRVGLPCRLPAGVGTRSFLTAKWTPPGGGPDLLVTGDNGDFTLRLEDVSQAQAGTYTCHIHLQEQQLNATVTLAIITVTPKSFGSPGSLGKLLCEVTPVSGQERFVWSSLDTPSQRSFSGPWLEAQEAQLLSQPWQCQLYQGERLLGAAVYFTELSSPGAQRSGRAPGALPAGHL
Procedure: as §1

[6] = biological target: human VISTA protein (human, UniProt Q9H7M9 33-194)
Procedure: as §1

[7] = biological target: T5, human LTBR protein (human, UniProt P36941 31-227)
T5 construct: also called LT β R; LTβR
T5 sequence (P36941 31-227 limits assumed): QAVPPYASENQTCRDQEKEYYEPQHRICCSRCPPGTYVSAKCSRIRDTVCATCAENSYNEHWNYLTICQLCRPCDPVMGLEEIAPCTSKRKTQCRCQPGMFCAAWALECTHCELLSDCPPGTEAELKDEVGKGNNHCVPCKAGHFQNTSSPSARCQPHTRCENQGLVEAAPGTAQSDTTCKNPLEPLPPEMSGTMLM
Procedure: as §1

[8] = biological target: T6, human TIGIT protein (human, UniProt Q495A1 22-141)
T6 sequence (looked up): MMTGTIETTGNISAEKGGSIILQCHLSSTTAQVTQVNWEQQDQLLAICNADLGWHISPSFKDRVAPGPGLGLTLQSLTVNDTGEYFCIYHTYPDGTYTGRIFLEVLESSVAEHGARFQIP
Procedure: as §1

[9] = biological target: T7, human CD19 protein (human, UniProt P15391 20-291)
T7 sequence (looked up): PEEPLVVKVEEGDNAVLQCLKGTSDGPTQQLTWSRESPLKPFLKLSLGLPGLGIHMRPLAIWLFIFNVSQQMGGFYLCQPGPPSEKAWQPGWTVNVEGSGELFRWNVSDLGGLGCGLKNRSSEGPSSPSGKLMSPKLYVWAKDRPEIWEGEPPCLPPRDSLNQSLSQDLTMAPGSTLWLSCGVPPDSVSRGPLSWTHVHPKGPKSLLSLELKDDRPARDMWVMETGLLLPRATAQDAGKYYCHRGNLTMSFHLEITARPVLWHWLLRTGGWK
Procedure: as §1

[10] = biological target: human CD47 protein (human, UniProt Q08722 19-139)
Chain of human CD47 protein (Q08722 19-139 limits assumed): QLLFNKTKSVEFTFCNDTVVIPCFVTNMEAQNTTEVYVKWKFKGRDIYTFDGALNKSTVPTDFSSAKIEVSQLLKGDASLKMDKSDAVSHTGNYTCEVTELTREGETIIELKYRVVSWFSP
Procedure: as §1

[11] = biological target: T8, human GITR protein (human, UniProt Q9Y5U5 26-161)
T8 sequence (looked up): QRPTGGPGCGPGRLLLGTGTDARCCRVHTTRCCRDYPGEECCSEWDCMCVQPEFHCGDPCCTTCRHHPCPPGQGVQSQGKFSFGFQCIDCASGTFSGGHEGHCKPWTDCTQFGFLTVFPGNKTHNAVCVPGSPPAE
Procedure: as §1

[12] = biological target: human CD27 protein (human, UniProt P26842 21-192, limits assumed)
Chain of human CD27 protein (P26842 21-192 limits assumed): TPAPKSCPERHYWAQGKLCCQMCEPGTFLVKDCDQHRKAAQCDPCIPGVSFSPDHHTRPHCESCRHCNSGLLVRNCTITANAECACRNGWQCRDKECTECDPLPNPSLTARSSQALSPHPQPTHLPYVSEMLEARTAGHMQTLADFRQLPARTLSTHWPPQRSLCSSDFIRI
Procedure: as §1

B1: Clone 3712-IgG1v (IgG1v/kappa) (antibody)
heavy: QVQLVQSGAEVKKPGASVKVSCKASGYTFAGFEMHWVRQAPGQGLEWMGAIDPKTGGTDYNQKFKDRVTMTRDTSISTAYMELSRLRSDDTAVYYCARDLGYFDVWGQGTLVTVSSASTKGPSVFPLAPSSKSTSGGTAALGCLVKDYFPEPVTVSWNSGALTSGVHTFPAVLQSSGLYSLSSVVTVPSSSLGTQTYICNVNHKPSNTKVDKKVEPKSCDKTHTCPPCPAPELLGPSVFLFPPKPKDTLMISRTPEVTCVVVDVEHEDPEVKFNWYVDGVEVHNAKTKPREEQYNSTYRVVSVLTVLHQDWLNGKEYKCKVSNKALPAPIEKTISKAKGQPREPQVYTLPPSREEMTKNQVSLTCLVKGFYPSDIAVEWESNGQPENNYKTTPPVLDSDGSFFLYSKLTVDKSRWQQGNVFSCSVMHEALHNHYTQKSLSLSPGK
light: DIQMTQSPSSLSASVGDRVTITCRASQDIRSNLNWYQQKPGGAVKLLIYYTSRLHSGVPSRFSGSGSGTDYTLTISSLQPEDFATYFCQQSEKLPRTFGGGTKVEIRRTVAAPSVFIFPPSDEQLKSGTASVVCLLNNFYPREAKVQWKVDNALQSGNSQESVTEQDSKDSTYSLSSTLTLSKADYEKHKVYACEVTHQGLSSPVTKSFNRGEC
notes: copies: 2 + 2
binding result [1]: no binding (tested: 10 µg/mL and 1 µg/mL)
binding result [2]: no binding (tested: 10 µg/mL and 1 µg/mL)
binding result [3]: no binding (tested: 10 µg/mL and 1 µg/mL)
binding result [4]: no binding (tested: 10 µg/mL and 1 µg/mL)
binding result [5]: no binding (tested: 10 µg/mL and 1 µg/mL)
binding result [6]: no binding (tested: 10 µg/mL and 1 µg/mL)
binding result [7]: no binding (tested: 10 µg/mL and 1 µg/mL)
binding result [8]: no binding (tested: 10 µg/mL and 1 µg/mL)
binding result [9]: no binding (tested: 10 µg/mL and 1 µg/mL)
binding result [10]: no binding (tested: 10 µg/mL and 1 µg/mL)
binding result [11]: no binding (tested: 10 µg/mL and 1 µg/mL)
binding result [12]: no binding (tested: 10 µg/mL and 1 µg/mL)
